Reference: patent US20130004493

Biological target: T1, Epithelial membrane protein 2 (EMP2), human, P54851
T1 chain: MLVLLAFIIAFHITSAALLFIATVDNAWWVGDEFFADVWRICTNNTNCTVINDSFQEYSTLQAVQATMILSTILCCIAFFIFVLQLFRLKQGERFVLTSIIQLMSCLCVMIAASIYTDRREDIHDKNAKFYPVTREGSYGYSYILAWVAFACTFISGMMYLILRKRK

B1: Focal adhesion kinase (FAK), human (protein)
chain: AAAYLDPNLNHTPNSSTKTHLGTGMERSPGAMERVLKVFHYFESNSEPTTWASIIRHGDATDVRGIIQKIVDSHKVKHVACYGFRLSHLRSEEVHWLHVDMGVSSVREKYELAHPPEEWKYELRIRYLPKGFLNQFTEDKPTLNFFYQQVKSDYMLEIADQVDQEIALKLGCLEIRRSYWEMRGNALEKKSNYEVLEKDVGLKRFFPKSLLDSVKAKTLRKLIQQTFRQFANLNREESILKFFEILSPVYRFDKECFKCALGSSWIISVELAIGPEEGISYLTDKGCNPTHLADFTQVQTIQYSNSEDKDRKGMLQLKIAGAPEPLTVTAPSLTIAENMADLIDGYCRLVNGTSQSFIIRPQKEGERALPSIPKLANSEKQGMRTHAVSVSETDDYAEIIDEEDTYTMPSTRDYEIQRERIELGRCIGEGQFGDVHQGIYMSPENPALAVAIKTCKNCTSDSVREKFLQEALTMRQFDHPHIVKLIGVITENPVWIIMELCTLGELRSFLQVRKYSLDLASLILYAYQLSTALAYLESKRFVHRDIAARNVLVSSNDCVKLGDFGLSRYMEDSTYYKASKGKLPIKWMAPESINFRRFTSASDVWMFGVCMWEILMHGVKPFQGVKNNDVIGRIENGERLPMPPNCPPTLYSLMTKCWAYDPSRRPRFTELKAQLSTILEEEKAQQEERMRMESRRQATVSWDSGGSDEAPPKPSRPGYPSPRSSEGFYPSPQHMVQTNHYQVSGYPGSHGITAMAGSIYPGQASLLDQTDSWNHRPQEIAMWQPNVEDSTVLDLRGIGQVLPTHLMEERLIRQQQEMEEDQRWLEKEERFLKPDVRLSRGSIDREDGSLQGPIGNQHIYQPVGKPDPAAPPKKPPRPGAPGHLGSLASLSSPADSYNEGVKLQPQEISPPPTANLDRSNDKVYENVTGLVKAVIEMSSKIQPAPPEEYVPMVKEVGLALRTLLATVDETIPLLPASTHREIEMAQKLLNSDLGELINKMKLAQQYVMTSLQQEYKKQMLTAAHALAVDAKNLLDVIDQARLKMLGQTRPH
- phosphorylation of FAK at Tyr-397, Tyr-407, Tyr-861 and Tyr-925 (quantitative Western blot, ARPE-19/EMP2 against ARPE-19): EMP2 overexpression enhanced phosphorylation of FAK two- to three-fold at Tyr-397, Tyr-407, Tyr-861, and Tyr-925
